What was measured:
[1] = molecular target: T1, GNA1870 surface-exposed lipoprotein, Q9JXV4
T1 chain: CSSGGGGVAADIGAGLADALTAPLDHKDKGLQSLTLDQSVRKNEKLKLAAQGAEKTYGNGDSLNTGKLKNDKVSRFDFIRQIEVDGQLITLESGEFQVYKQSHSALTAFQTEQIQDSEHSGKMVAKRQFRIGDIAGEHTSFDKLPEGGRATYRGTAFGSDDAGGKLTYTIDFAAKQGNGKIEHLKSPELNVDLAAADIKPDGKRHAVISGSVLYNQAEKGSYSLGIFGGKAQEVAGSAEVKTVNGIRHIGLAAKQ

[2] = molecular target: T2, meningococcal protein 287 (purified)
T2 chain: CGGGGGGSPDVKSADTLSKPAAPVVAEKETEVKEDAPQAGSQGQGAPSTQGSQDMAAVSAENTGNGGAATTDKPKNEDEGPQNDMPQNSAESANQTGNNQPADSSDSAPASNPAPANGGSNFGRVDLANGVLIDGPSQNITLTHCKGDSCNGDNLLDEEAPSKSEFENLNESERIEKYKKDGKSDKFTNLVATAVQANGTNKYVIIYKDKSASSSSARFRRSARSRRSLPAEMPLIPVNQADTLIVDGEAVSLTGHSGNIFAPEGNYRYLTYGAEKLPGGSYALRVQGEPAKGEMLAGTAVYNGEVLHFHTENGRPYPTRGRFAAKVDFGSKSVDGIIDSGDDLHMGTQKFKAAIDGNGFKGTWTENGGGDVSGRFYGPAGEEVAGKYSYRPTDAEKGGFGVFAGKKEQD

[3] = molecular target: T3, recombinant App (Adhesion and penetration protein)
T3 chain: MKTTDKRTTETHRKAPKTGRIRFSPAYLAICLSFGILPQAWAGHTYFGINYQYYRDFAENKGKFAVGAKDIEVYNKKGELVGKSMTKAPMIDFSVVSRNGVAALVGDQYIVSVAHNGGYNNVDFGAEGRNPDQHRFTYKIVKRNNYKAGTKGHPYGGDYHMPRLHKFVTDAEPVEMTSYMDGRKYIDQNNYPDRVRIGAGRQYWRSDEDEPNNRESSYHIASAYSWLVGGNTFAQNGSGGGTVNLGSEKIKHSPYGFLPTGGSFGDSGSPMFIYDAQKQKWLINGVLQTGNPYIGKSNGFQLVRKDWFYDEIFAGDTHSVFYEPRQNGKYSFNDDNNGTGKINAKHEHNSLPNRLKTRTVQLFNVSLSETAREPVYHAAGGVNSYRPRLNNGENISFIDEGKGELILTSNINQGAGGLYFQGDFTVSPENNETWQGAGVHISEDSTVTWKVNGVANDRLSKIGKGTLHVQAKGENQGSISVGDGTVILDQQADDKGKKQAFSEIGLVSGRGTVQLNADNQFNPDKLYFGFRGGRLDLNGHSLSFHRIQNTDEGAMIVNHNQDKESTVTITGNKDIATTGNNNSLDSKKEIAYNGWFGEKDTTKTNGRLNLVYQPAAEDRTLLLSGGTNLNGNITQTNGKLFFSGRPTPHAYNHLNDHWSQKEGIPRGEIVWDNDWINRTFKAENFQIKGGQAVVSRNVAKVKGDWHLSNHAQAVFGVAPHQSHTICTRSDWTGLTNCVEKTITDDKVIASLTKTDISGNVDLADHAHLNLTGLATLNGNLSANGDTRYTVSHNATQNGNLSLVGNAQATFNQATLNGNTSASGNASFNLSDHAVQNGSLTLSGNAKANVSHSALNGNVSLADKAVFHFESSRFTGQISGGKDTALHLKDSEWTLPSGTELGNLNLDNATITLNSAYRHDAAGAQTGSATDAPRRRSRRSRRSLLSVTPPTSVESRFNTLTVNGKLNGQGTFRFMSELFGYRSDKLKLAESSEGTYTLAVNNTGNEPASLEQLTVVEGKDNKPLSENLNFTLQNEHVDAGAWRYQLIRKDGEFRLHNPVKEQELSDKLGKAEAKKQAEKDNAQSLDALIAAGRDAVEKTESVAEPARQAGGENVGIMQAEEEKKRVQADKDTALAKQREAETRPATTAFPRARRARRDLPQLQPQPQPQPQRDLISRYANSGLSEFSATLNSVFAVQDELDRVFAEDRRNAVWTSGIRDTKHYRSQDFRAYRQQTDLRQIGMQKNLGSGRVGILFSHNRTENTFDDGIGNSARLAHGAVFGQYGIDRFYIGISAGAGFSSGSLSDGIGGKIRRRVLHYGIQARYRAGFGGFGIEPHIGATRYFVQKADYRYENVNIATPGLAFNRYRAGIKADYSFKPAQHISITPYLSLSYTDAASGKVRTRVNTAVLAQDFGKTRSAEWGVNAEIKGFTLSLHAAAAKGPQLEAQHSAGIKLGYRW

B1: human lactoferrin (protein)
chain: GRRRSVQWCAVSQPEATKCFQWQRNMRKVRGPPVSCIKRDSPIQCIQAIAENRADAVTLDGGFIYEAGLAPYKLRPVAAEVYGTERQPRTHYYAVAVVKKGGSFQLNELQGLKSCHTGLRRTAGWNVPIGTLRPFLNWTGPPEPIEAAVARFFSASCVPGADKGQFPNLCRLCAGTGENKCAFSSQEPYFSYSGAFKCLRDGAGDVAFIRESTVFEDLSDEAERDEYELLCPDNTRKPVDKFKDCHLARVPSHAVVARSVNGKEDAIWNLLRQAQEKFGKDKSPKFQLFGSPSGQKDLLFKDSAIGFSRVPPRIDSGLYLGSGYFTAIQNLRKSEEEVAARRARVVWCAVGEQELRKCNQWSGLSEGSVTCSSASTTEDCIALVLKGEADAMSLDGGYVYTAGKCGLVPVLAENYKSQQSSDPDPNCVDRPVEGYLAVAVVRRSDTSLTWNSVKGKKSCHTAVDRTAGWNIPMGLLFNQTGSCKFDEYFSQSCAPGSDPRSNLCALCIGDEQGENKCVPNSNERYYGYTGAFRCLAENAGDVAFVKDVTVLQNTDGNNNEAWAKDLKLADFALLCLDGKRKPVTEARSCHLAMAPNHAVVSRMDKVERLKQVLLHQQAKFGRNGSDCPDKFCLFQSETKNLLFNDNTECLARLHGKTTYEKYLGPQYVAGITNLKKCSTSPLLEACEFLRK
Question: What does the source list for B1?
Answer: proteolytic degradation on meningococci (western blot with anti-GNA1870) [1]: lactoferrin treatment under conditions which degrade App had no effect on ONA1870; proteolytic cleavage (SDS-PAGE and western blot with rabbit anti-287) [2]: Lane 3 shows definite cleavage of protein 287; share of N-terminus RSLPAEMPL in the ~19 kDa cleavage fragment [2]: RSLPAEMPL (˜30%); share of N-terminus SLPAEMPLI in the ~19 kDa cleavage fragment [2]: SLPAEMPLI (˜70%); proteolytic cleavage (western blot with anti-App) [3]: the App antigen was cleaved in different fragments
